From paper PMC9170038, “Crowdsourced RNA design discovers diverse, reversible, efficient, self-contained molecular switches”

Molecular target: MS2 coat protein, dlFG mutant (Escherichia phage MS2, UniProt P03612, del68-81insG)
Experiment: 4 mM Mg2+; no ligand; RNA-MaP array; 100 mM Tris-HCl pH 7.5, 80 mM KCl, 4 mM MgCl2, 0.1 mg/mL BSA, 1 mM DTT, 0.01 mg/mL yeast tRNA, 0.01% Tween-20; protein 1.5 nM to 3 uM; 37 C (Table S3)
Details: chain copies: 2; label: tethered by stalled RNA polymerase

Row | Binder | Kd [nM]
1 | Eterna 7770355 (Exclusion - Tryptophan A) (ssRNA) RNA: GGUGUUGUUUGUGCUGUUUUCCUCGUUCCUCGAGGACCGGUACGGCCGCCACUCGAGUGAUGUUUGGGUAGCGAUCCUUGUUAGU | > 3000
2 | Eterna 1023 (Exclusion - FMN A) (ssRNA) RNA: GUCCAUGUCCUCAUUCGUGCACUGGACACCAAGGAUAUGUUUAUGGACAGAAGGUGGUUGGGUCAGUGAUGUUGAUAUAAUUAGU | > 3000
3 | Eterna 6428636 (Exclusion NG 3) (ssRNA) RNA: AGGUAUCCUGAGAAAUUUCUCCACAUGAGGAUCACCCAUGUAGAGGAUAUCGACGCUGUGCGGUUCGAGAAGGCUACACUAAAA | 5.95
4 | Eterna 7696419 (Exclusion - Arginine B) (ssRNA) RNA: AAUGUACAGGGAAGGAGCGUAGUCCAGUGAUGUUGGAGUUAAAUACCAGUGAUGUUGGUUAUACAGGUAGGUCGCCCUAAAGUGC | > 3000
5 | Eterna 6429242 (Inverted Exclusion NG 1) (ssRNA) RNA: UCCGCAUCUGAGAAGGGAUCUCCGCGGAAGGGAUCAGGAUAUCGGACAUGAGGAUCACCCAUGUGCCGUUAAAGGACACCUGGU | 6.05
6 | Eterna 9265 (Exclusion 1) (ssRNA) RNA: CCGUCACAUGAGGAUCACCCAUGUCAGGAUAUCUAUCAUAGCAUCGAAAGAUGCGGGUAGAGAAGGGACUAUCC | 19.2
7 | Eterna 7692481 (Exclusion - Theophylline B) (ssRNA) RNA: UUAGUUGAAAGUGAUACCAGACGAGUGAAGGGAAGAAAUUAAGUUGGAGUGAUGUUCCGCGUCCCUUGGCAGCACUUUGUAAUUU | > 3000
8 | Eterna 7673438 (Same State - Arginine B) (ssRNA) RNA: UGUAUGGACUGAAGGAGCGGGUUGAUAUCAUGAGGAUCACCCAUGGAAAAGGCGAAAGCCGCCCAGGUAGGUCGCAGUCCAUACU | 20
9 | Eterna 7673392 (Same State - Arginine B) (ssRNA) RNA: UGUAUGGACUGAAGGAGCGGGUUGAUAACCUGAGGAUCAUCCAGGUAAAAGGCGAAAGCCACCCAGGUAGGUCGCAGUCCAUACU | 279
10 | Eterna 6454516 (Inverted Same State NG 3) (ssRNA) RNA: AAACACGGACAUGAGGAUCACCCAUGUGGCGAAAGCCUUGGAAGAAGGCCGAUUGCAAAGCAAUCGGAGGAUAUUCAUACCGUG | 13.8
11 | Eterna 7710185 (Exclusion - Tryptophan A) (ssRNA) RNA: AGCUCGCAUCCUCUAGCGUCAAAGACGCCUCGAGGACCGGUACGGCCGCCACUCGAGAUGAGGAUCACCCAUCUCAAAGCGAGCA | 190
12 | Eterna 6150223 (Exclusion NG 3) (ssRNA) RNA: AUUAUGACCGAGUUAUGCUUCAAAACAUGAGGAUCACCCAUGUAGGAUAUCAGCACGAUAAGUGCUGAGAAGGACAUCUCGGUC | 14.7
13 | Eterna 6398795 (Exclusion NG 1) (ssRNA) RNA: CCUGCACCUCAAGGAUAUCCAGUCGAAACGACUGGAGAAGGUGAGGAUCACCCAUCUAGCCUGACGAAAGUCAGGCAUGCAGGA | 368
14 | Eterna 7734801 (Same State - FMN B) (ssRNA) RNA: UGUACCGAGUCAGGAUAUGUCGUCGAAAGACGAAUCCUAGUGAUGUUAGGGAUCUGCGAAAGCAGUGCAGAAGGGACUUGGUACU | > 3000
15 | AAAACAUGAGGAUCACCCAUGUAAA (ssRNA) [Eterna 1 (MS2 control)] | 12.8
16 | Eterna 7697025 (Exclusion - Arginine B) (ssRNA) RNA: UGAUAGGACAGAAGGAGCGGAAGUGAUGUUUCCAAUGGAUAAAAGGUGUCAAAGACACCCUUCCAGGUAGGUCGCUGUCCUAUCU | > 3000

Row | Binder | Kd [nM]
17 | Eterna 7632613 (Same State - Theophylline B) (ssRNA) RNA: GGGUGUGAUCCGGAUACCAGCGAACAUGAGGAUCACCCAUGUGACCUGAGAUCGGCUCUACGCCCUUGGCAGCCGCGGUCGCAGG | 12.2
18 | Eterna 6374082 (Exclusion NG 1) (ssRNA) RNA: CGGUGACGUGUAGGAUAUGGCGCUGGGUUUUGGCCAGAAGGACAUGAGGAUCACCCAUGUGGUAGAGGGCUGGCGGCCGCCCGU | 15.7
19 | Eterna 6117498 (Same State NG 2) (ssRNA) RNA: AAAACAUACCGAGGAUAUUCAUAUAAUAAAUAAACAUGAGGAUCACCCAUUUGGCAAAAGCCUAGGGAGAAGGCGGAAUGCUAA | 974
20 | Eterna 7710481 (Same State - Theophylline B) (ssRNA) RNA: GGAGGUUGGUGCGAUACCAGACCAGCAGUGAUGUUGCGCCAAAGUGAGUGAUGUUCACCGGUCCCUUGGCAGCGCAUUCCUUUAG | > 3000
21 | Eterna 7692142 (Exclusion - FMN A) (ssRNA) RNA: UUAUAUACGAGUGAUGUUCGUUAUUUAUCAGAGGAUAUGCUUAAAUGCAGAAGGCUGUUUUUCUAUUUGAUAUUAAAUUUUAUAA | > 3000
22 | Eterna 6121278 (Same State NG 1) (ssRNA) RNA: UCACUCAAGUUAGGAUAUGGAUCGGAAAACGAUCCAGAAGGAACAUGAAAACAUGAGCAUCAGCCAUGUUCCAGAAACGAGUGA | 77.6
23 | Eterna 6121478 (Same State NG 1) (ssRNA) RNA: GCACUCAAGUUAGGAUAUGGAUCGGAAACCGAUCCAGAAGGAACACAAUAACAUGAGCAUCAGCCGUGUUCCAGAAACGAGUGC | 463
24 | Eterna 7684764 (Exclusion - Tryptophan B) (ssRNA) RNA: AAUAAAAUCACGGCCGCCACUGAUGUUAAUAUUAGCAGUGAUGUUGCUAUGUCGUUUUUAUUUAACAGGACCGGGUGAAUAUUUA | > 3000
25 | Eterna 7696031 (Exclusion - Tryptophan B) (ssRNA) RNA: UGAUACCAGACGGCCGCCACUACACCAGUCAAAGACUGGAUGUGAAAUUCGACCAGUGAUGUUGGUAGGACCGGGUCUGGUAUCU | > 3000
26 | Eterna 6443507 (Inverted Exclusion NG 1) (ssRNA) RNA: CGAACCAUGUAGAAGGCUGUCUUAAAAUAGGACAGAGGAUAUACAUGAGGAUCACCCAUGUACUCCUUUAAAAGGUUCGAAAUA | 5.01
27 | Eterna 6421601 (Exclusion NG 3) (ssRNA) RNA: GGUACUCAAAGAGUACCAAAACGAACAUGAGGAUCACCCAUGUAGGAUAUGCUACUCAAAGAGUAGCAGAAGGACAUGUGCCUA | 18.5
28 | Eterna 7730540 (Same State - FMN A) (ssRNA) RNA: AGCGAGUGAUGUUCGCUGAUCAUGUGAAGUUAGGAUAUAUACUUGCAUAGAAGGAACUAUUACAUGACAUUAGAGGCAGUAGUUC | > 3000
29 | Eterna 7687503 (Exclusion - Theophylline A) (ssRNA) RNA: UGUAUGUGUCAGCGAGUGAUGUUCGACGAUACCAGACUCGAUAGAGUCCCUUGGCAGCGUAAUGCAUGCCAAACUGGCACAUACU | > 3000
30 | Eterna 7697814 (Same State - Tryptophan B) (ssRNA) RNA: AGUAGUUGGACGGCCGCCACUGGAACAGCUUUGCCAAAGGCAGAGCACUAGAGUGAUGUUCUAGCUAGGACCGGGUCCAACUACA | > 3000
31 | Eterna 7755228 (Same State - Theophylline A) (ssRNA) RNA: AAAAUAAAUCAGUGAUGUUGGUAUCCGGAUACCAGCGAUAAUCAUCGCCCUUGGCAGCCGCGGACGUACAAAAUAAGUACGUCCU | > 3000
